The source of these data is patent US7803750.

The target in this assay is tyrosinase protein of murine B16 melanoma tumors and melan-A murine melanocytes (murine) (UniProt P11344). Put plainly: cell-based or functional assay.
UniProt P11344, sequence (P11344 19-533 limits assumed): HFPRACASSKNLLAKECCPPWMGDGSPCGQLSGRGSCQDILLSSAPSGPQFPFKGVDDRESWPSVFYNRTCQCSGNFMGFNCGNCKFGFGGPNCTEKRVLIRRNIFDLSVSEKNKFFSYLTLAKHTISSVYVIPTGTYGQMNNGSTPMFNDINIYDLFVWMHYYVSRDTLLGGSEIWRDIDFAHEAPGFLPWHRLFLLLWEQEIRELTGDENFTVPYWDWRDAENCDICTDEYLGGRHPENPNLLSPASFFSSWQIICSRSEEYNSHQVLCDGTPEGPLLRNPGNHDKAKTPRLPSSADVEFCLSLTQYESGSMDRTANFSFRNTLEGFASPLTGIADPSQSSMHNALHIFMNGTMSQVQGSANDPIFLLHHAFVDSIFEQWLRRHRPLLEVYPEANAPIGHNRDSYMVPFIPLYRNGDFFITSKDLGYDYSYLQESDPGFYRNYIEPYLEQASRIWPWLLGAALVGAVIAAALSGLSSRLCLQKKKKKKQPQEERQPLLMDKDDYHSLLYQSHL

“epitope-tagged recombinant human (rh) ZAG (zinc alpha-2-glycoprotein) with myc and 6-His 3' epitope tags (from UniProt P25311 21-298)” displayed a decrease in color development with L-DOPA (tyrosinase activity in frozen sections of B16-V tumors) of 25 to 50%.
